Target: HLA-A*02:01 (Homo sapiens, UniProt P04439, D140Y/D185E/D98H/E176V/E277Q/G131W/G231S/I119V/I121R/I166T/I218V/L300P/L318F/N151K/N90K/P208A/P217A/Q86G/Q94H/R138H/R169H/T345S)
Experiment: MHC binding assay (UV-ligand exchange, beta2m ELISA)
Settings: binding to HLA-A*02:01 ranged by peptide exchange yield (UV-ligand exchange, β2m ELISA)
Summary of the method: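 UV-cleavable ligand in peptide-MHC complexes was exchanged for test peptide. Exchange yield came from an ELISA on streptavidin-captured complexes diluted 100 fold, detecting β2m with HRP anti-β2m (2 ug/ml, 1 h, 37° C.), TMB, A450.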

Peptide exchange | Substance
“+++” (≥50 = +++) | 614 (LLLPDQPPYHL; listed as Homo sapiens) [compound 614]
“+++” (≥50 = +++) | 481 (GLIEDYEALL; listed as Homo sapiens) [compound 481]
“+++” (≥50 = +++) | 578 (FLDPGGPMMKL; listed as Homo sapiens) [compound 578]
“+++” (≥50 = +++) | 517 (LLMPIPEGLTL; listed as Homo sapiens) [compound 517]
“+” (≥10% = +) | 520 (LAVHPSGVAL; listed as Homo sapiens) [compound 520]
“+++” (≥50 = +++) | 452 (ILLEHGADPNL; listed as Homo sapiens) [compound 452]
“+++” (≥50 = +++) | 558 (GLLENIPRV; listed as Homo sapiens) [compound 558]
“+++” (≥50 = +++) | 521 (MLLTKLPTI; listed as Homo sapiens) [compound 521]
“+++” (≥50 = +++) | 488 (FLAEDPKVTL; listed as Homo sapiens) [compound 488]
“++++” (≥75% = ++++) | 602 (YLLEQIKLIEV; listed as Homo sapiens) [compound 602]
“+++” (≥50 = +++) | 612 (YLYNEGLSV; listed as Homo sapiens) [compound 612]
“+++” (≥50 = +++) | 480 (ALLEDSCHYL; listed as Homo sapiens) [compound 480]
“+++” (≥50 = +++) | 589 (KLYPQLPAEI; listed as Homo sapiens) [compound 589]
“++++” (≥75% = ++++) | 621 (VLMDRLPSLL; listed as Homo sapiens) [compound 621]
“+++” (≥50 = +++) | 593 (GLPRFGIEMV; listed as Homo sapiens) [compound 593]
“+++” (≥50 = +++) | 556 (FLTDLEDLTL; listed as Homo sapiens) [compound 556]
“+++” (≥50 = +++) | 571 (LLLTTIPQI; listed as Homo sapiens) [compound 571]
“++” (≥20% = ++) | 513 (SLWPSPEQL; listed as Homo sapiens) [compound 513]
“+++” (≥50 = +++) | 575 (YLISQVEGHQV; listed as Homo sapiens) [compound 575]
“+++” (≥50 = +++) | 563 (WLLPYNGVTV; listed as Homo sapiens) [compound 563]
“+++” (≥50 = +++) | 604 (SILDRDDIFV; listed as Homo sapiens) [compound 604]
“+++” (≥50 = +++) | 531 (YTLPIASSIRL; listed as Homo sapiens) [compound 531]
“+++” (≥50 = +++) | 498 (KLWTGGLDNTV; listed as Homo sapiens) [compound 498]
“+++” (≥50 = +++) | 473 (AMATESILHFA; listed as Homo sapiens) [compound 473]
“+++” (≥50 = +++) | 596 (ALLDQTKTLAESAL; listed as Homo sapiens) [compound 596]
“+++” (≥50 = +++) | 569 (KLVDRTWTL; listed as Homo sapiens) [compound 569]

The remaining lines, values behind:

Substance | Peptide exchange
237 (ALLEASGTLLL; listed as Homo sapiens) [compound 237] | “++++” (≥75% = ++++)
225 (SLLKVLPAL; listed as Homo sapiens) [compound 225] | “+++” (≥50 = +++)
186 (TLFFQQNAL; listed as Homo sapiens) [compound 186] | “++” (≥20% = ++)
59 (IMEDIILTL; listed as Homo sapiens) [compound 59] | “+++” (≥50 = +++)
441 (ALLENPKMEL; listed as Homo sapiens) [compound 441] | “+++” (≥50 = +++)
305 (SIANFSEFYV; listed as Homo sapiens) [compound 305] | “++++” (≥75% = ++++)
332 (YLISELEAA; listed as Homo sapiens) [compound 332] | “+++” (≥50 = +++)
124 (ALYETELADA; listed as Homo sapiens) [compound 124] | “++” (≥20% = ++)
322 (TLMTSLPAL; listed as Homo sapiens) [compound 322] | “+++” (≥50 = +++)
361 (ALYELEGTTV; listed as Homo sapiens) [compound 361] | “+++” (≥50 = +++)
93 (LLQAIKLYL; listed as Homo sapiens) [compound 93] | “++” (≥20% = ++)
122 (FLLAEDDIYL; listed as Homo sapiens) [compound 122] | “+++” (≥50 = +++)
46 (ILTEENIHL; listed as Homo sapiens) [compound 46] | “+++” (≥50 = +++)
86 (NLIGKIENV; listed as Homo sapiens) [compound 86] | “+++” (≥50 = +++)
34 (ILVEADSLWVV; listed as Homo sapiens) [compound 34] | “+++” (≥50 = +++)
24 (SLSDGLEEV; listed as Homo sapiens) [compound 24] | “++” (≥20% = ++)
204 (KIAENVEEV; listed as Homo sapiens) [compound 204] | “++” (≥20% = ++)
47 (ILLSVPLLVV; listed as Homo sapiens) [compound 47] | “++” (≥20% = ++)
197 (ALGPEGGRV; listed as Homo sapiens) [compound 197] | “++” (≥20% = ++)
142 (FLFATPVFI; listed as Homo sapiens) [compound 142] | “+++” (≥50 = +++)
188 (GLFPVTPEAV; listed as Homo sapiens) [compound 188] | “+++” (≥50 = +++)
180 (FQIDPHSGLVTV; listed as Homo sapiens) [compound 180] | “++” (≥20% = ++)
221 (ALYEEGLLL; listed as Homo sapiens) [compound 221] | “++” (≥20% = ++)
238 (YLISFQTHI; listed as Homo sapiens) [compound 238] | “+++” (≥50 = +++)
396 (ALLPDLPAL; listed as Homo sapiens) [compound 396] | “+++” (≥50 = +++)
219 (KLSDIGITV; listed as Homo sapiens) [compound 219] | “+++” (≥50 = +++)

Substance | Peptide exchange
110 (FLSQVDFEL; listed as Homo sapiens) [compound 110] | “+++” (≥50 = +++)
427 (ALLPLSPYL; listed as Homo sapiens) [compound 427] | “+++” (≥50 = +++)
313 (VLFDDELLMV; listed as Homo sapiens) [compound 313] | “+++” (≥50 = +++)
125 (VQIHQVAQV; listed as Homo sapiens) [compound 125] | “+++” (≥50 = +++)
318 (GLINTGVLSV; listed as Homo sapiens) [compound 318] | “++” (≥20% = ++)
234 (ALMEDTGRQML; listed as Homo sapiens) [compound 234] | “++” (≥20% = ++)
428 (KLGHTDILVGV; listed as Homo sapiens) [compound 428] | “++” (≥20% = ++)
324 (FLYDEIEAEV; listed as Homo sapiens) [compound 324] | “+++” (≥50 = +++)
448 (NLLETKLQL; listed as Homo sapiens) [compound 448] | “+++” (≥50 = +++)
382 (ALQNYIKEA; listed as Homo sapiens) [compound 382] | “++” (≥20% = ++)
450 (FMIDASVHPTL; listed as Homo sapiens) [compound 450] | “+++” (≥50 = +++)
317 (SLAALVVHV; listed as Homo sapiens) [compound 317] | “+++” (≥50 = +++)
119 (FLYIGDIVSL; listed as Homo sapiens) [compound 119] | “++++” (≥75% = ++++)
169 (NLPEYLPFV; listed as Homo sapiens) [compound 169] | “+++” (≥50 = +++)
272 (ALGNTVPAV; listed as Homo sapiens) [compound 272] | “+++” (≥50 = +++)
351 (SLIPNLRNV; listed as Homo sapiens) [compound 351] | “+++” (≥50 = +++)
341 (SQIALNEKLVNL; listed as Homo sapiens) [compound 341] | “+++” (≥50 = +++)
289 (VLLEIEDLQV; listed as Homo sapiens) [compound 289] | “++++” (≥75% = ++++)
73 (NIFDLQIYV; listed as Homo sapiens) [compound 73] | “+++” (≥50 = +++)
194 (ALPLFVITV; listed as Homo sapiens) [compound 194] | “+++” (≥50 = +++)
214 (FLLDLDPLLL; listed as Homo sapiens) [compound 214] | “+++” (≥50 = +++)
343 (SLLEVNEESTV; listed as Homo sapiens) [compound 343] | “+++” (≥50 = +++)
251 (ALYTGFSILV; listed as Homo sapiens) [compound 251] | “++” (≥20% = ++)
353 (YLFEMDSSL; listed as Homo sapiens) [compound 353] | “++” (≥20% = ++)
165 (SLLDEIRAV; listed as Homo sapiens) [compound 165] | “+++” (≥50 = +++)
32 (KLDDLTQDLTV; listed as Homo sapiens) [compound 32] | “++” (≥20% = ++)
